The experiment addresses Met receptor on cells (A549, MDA-MB-435, BxPC3) (UniProt P08581). As to the kind of experiment: cell-based or functional assay.
UniProt P08581, sequence (P08581 25-1390 limits assumed): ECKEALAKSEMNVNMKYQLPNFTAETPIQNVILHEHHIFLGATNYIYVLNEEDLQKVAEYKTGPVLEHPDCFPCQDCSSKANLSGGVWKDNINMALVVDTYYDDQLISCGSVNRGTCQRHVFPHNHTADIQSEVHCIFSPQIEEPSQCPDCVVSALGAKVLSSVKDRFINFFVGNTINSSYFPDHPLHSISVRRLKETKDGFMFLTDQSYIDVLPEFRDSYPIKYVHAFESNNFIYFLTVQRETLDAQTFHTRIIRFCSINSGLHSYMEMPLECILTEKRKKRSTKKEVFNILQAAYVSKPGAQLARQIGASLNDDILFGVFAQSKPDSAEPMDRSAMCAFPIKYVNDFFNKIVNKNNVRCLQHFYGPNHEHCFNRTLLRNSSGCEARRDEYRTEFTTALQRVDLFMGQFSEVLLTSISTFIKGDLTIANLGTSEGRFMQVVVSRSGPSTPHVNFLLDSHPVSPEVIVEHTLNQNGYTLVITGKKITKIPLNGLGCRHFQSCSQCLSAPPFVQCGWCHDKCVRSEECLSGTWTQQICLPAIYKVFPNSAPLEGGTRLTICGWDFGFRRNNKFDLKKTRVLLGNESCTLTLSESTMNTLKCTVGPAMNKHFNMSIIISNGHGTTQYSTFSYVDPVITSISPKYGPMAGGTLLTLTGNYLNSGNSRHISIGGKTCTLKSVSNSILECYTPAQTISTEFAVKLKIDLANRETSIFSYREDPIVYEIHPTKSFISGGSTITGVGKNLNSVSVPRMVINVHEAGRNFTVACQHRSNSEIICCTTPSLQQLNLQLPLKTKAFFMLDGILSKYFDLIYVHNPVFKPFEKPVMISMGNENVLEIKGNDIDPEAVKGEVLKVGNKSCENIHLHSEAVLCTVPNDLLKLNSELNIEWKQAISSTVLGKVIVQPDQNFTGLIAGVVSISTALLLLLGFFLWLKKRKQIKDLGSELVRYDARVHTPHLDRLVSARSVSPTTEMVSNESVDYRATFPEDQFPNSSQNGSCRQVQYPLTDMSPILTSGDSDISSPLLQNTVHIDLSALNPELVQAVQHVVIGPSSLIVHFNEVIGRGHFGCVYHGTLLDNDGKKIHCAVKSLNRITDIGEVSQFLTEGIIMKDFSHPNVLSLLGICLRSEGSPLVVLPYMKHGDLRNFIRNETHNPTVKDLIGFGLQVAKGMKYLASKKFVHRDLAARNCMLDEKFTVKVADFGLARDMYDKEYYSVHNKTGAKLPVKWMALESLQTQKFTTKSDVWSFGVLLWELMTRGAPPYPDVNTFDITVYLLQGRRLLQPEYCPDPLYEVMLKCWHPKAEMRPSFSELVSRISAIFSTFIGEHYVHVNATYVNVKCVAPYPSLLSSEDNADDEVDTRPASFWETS

Regarding “HGF G621A (two-chain full length HGF mutant) (from UniProt P14210 32-494; P14210 495-728) (ligand)”, the migration of MDA-MB435 cells (transwell, 1 nM), percent of wildtype HGF (% of wildtype activity) lay within 60 to 80. The figure for “HGF I699A (two-chain full length HGF mutant) (from UniProt P14210 32-494; P14210 495-728) (ligand)” is 60 to 80; for “HGF N701A (two-chain full length HGF mutant) (from UniProt P14210 32-494; P14210 495-728) (ligand)” it is 60 to 80; for “HGF P537A (two-chain full length HGF mutant) (from UniProt P14210 32-494; P14210 495-728) (ligand)” it is 60 to 80. The figure for “HGF R514A (two-chain full length HGF mutant) (from UniProt P14210 32-494; P14210 495-728) (ligand)” is 60 to 80; for “HGF T620A (two-chain full length HGF mutant) (from UniProt P14210 32-494; P14210 495-728) (ligand)” it is 60 to 80. On to “HGF Y619A (two-chain full length HGF mutant) (from UniProt P14210 32-494; P14210 495-728) (ligand)”, for which the migration of MDA-MB435 cells (transwell, 1 nM), percent of wildtype HGF (% of wildtype activity) fell in the range of 60 to 80.

Source of the values: patent publication US20050037431A1.
